Assay results from patent US20240239872A1 (SHANDONG AGRICULTURAL UNIVERSITY, published 2024).

T1: CP of tomato brown rugose fruit virus (genus Tobamovirus) (Tomato brown rugose fruit virus, UniProt A0A0S2SZX3 2-159)
T1 construct: also called ToMMV (as printed for this virus)
T1 sequence: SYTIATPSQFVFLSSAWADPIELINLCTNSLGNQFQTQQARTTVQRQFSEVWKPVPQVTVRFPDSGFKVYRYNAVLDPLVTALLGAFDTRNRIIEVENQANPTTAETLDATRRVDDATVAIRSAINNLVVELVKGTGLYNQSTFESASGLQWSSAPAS

B1: monoclonal antibody M1 (antibody, V domains shown)
VH: QVQLQQSGPELVRPGASVKMSCKTSGYPFSTYWMHWVKQRPGQGLEWIGMIKPSNSETSLNQKFKDKATLNVDKSSNTAYMQLNSLTSEDSGVYYCARAGDSWGQGTTLTVSS
VL: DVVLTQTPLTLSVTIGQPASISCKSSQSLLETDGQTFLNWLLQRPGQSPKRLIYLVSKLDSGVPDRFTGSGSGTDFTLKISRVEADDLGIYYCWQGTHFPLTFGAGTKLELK
notes: also called MAb M1
B2: monoclonal antibody M3 (antibody, V domains shown)
VH: EVILVESGGGLVKPGGSLRLSCAASGFTFSSHPLSWVRQSPDKRLEWVASISSGGRYTYYPDSVKGRLTISRDNAKNILYLHMNSLRSEDTAMYYCARRGSTATAWFAYWGQGTLVTVSA
VL: DIALTQSPASLAVSLGQRATISCKASQSVDYDGDSYMSWYQQKPGQPPKLLIYGASNLESGIPARFSGSGSGTDFTLNIHPVEEEDAATYYCQQSNEDLPTFGGGTKLEIK
notes: also called MAb M3
B3: monoclonal antibody N1 (antibody, V domains shown)
VH: EVQLVESGGGLVQPGGSLKLSCAASGFTFSSYGMSWVRQSPDKRLEWVATINNNGGSTYYPDSVKGRFTISRDNAKNTLYLQMSSLKSEDTAVYYCARDAAFDCWGQGTTLTVSS
VL: DIVMSQSPSSLAVSAGEKVTMSCKSSQSLLNSRTRKNYLAWYQQKPGQSPKLLIYWASTRESGVPDRFTGSGSGTDFTLTISSVQAEDLAVYYCKQSYNLFTFGSGTKLEIK
notes: also called MAb N1
B4: monoclonal antibody C1 (antibody, V domains shown)
VH: EVQLQQSGAELVRPGALVKLSCKASGFNIKDYYMHWVKQRPEEGLEWIGWIDPENGNTIYDPKFQGKASITADTSSNTVRLQLSSLTSEDTAVYYCARERGAYWGQGTLVTVSA
VL: QIVLTQSPAIMSASPGEKVTMTCSASSSVSYMYWFQQKPGSSPRLLIYDTSNLASGVPVRFSGSGSGTSYSLTISRMEAEDAATFYCQQWSSYPLTFGAGTKLELK
notes: also called MAb C1
B5: monoclonal antibody M2 (antibody, V domains shown)
VH: EVQLVESGGGLVQPKGSLKLSCAASDFTFNTHSMNWVRQAPGKVLEWIARIRSQSNNYATYYADSVKDRFTISRDDSQNMFYLQMNNLKTEDTAMYYCAGDYYGPFAYWGQGTLVAVSA
VL: DVLMTQTPLSLPVSLGDQASISCRSGQSLVHSNGNTYLHWYLQKPGQSPKLLIYKVSNRFSGVPDRFSGSGSGTDFTLKISRVEAEDLGVYFCSQSTHVPWTFGGGTKLEIK
notes: also called MAb M2

These binders were tested against T1, CP of tomato brown rugose fruit virus … (assay: dot blot; also Western blot and ELISA).

Binder	binding result
B1	no binding
B2	no binding
B3	no binding
B4	no binding
B5	no binding
